M2 binding remaining in the unbound fraction after M2 affinity resin data for one substance are collected here from patent US20020045741A1.

The target in the assay is CHO derived N' FLAG-mNR6 (murine NR6 with an N-terminal FLAG sequence) (mouse) (UniProt Q9JM58). The assay is described as follows: BiaCore biosensor, M2 on the sensorchip; concentrated CHO conditioned medium after M2 affinity column. In general terms: Surface plasmon resonance follows binding to a sensor surface in real time, without labels.
UniProt Q9JM58, sequence (Q9JM58 other isoform, or with tags, fused parts or gaps limits assumed): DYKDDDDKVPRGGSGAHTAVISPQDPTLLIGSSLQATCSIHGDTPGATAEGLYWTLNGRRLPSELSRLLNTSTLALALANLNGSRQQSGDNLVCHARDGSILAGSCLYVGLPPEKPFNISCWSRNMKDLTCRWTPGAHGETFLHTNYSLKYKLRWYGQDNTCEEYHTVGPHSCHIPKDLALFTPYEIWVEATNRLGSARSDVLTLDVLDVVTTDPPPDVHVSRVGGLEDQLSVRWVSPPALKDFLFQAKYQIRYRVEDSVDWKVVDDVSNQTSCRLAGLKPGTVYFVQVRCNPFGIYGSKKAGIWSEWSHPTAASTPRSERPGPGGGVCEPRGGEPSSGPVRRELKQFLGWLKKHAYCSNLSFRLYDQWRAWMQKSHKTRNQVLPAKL

For the substance “anti FLAG peptide M2 antibody (Kodak Eastman, USA)”, the M2 binding remaining in the unbound fraction after M2 affinity resin came to 20%.
